Patent US20100095387A1, “METHODS AND REAGENTS FOR SCREENING NEW DRUGS AND FOR TREATING ION PUMP ASSOCIATED DISORDERS AND DISEASES” (priority 2005, published 2010)

B1: C-Ag20z0: C-Ag20 isoform having the z0 splice variant, SEQ. ID NO. 1 (protein)
chain: MDPRTYIEYLNAVTESEKALQSNHFELTLRTEATQGWLVLWIGKAAERADYMALAIVDGHLQLSYDLASQPVVLRSTVKVNTNRWLRVRAHREHREGSLQVGNEAPVTSSSPLGATQLDTDGALWLGGLQKLPVGQPLPKAYGTGFVGCLRNVVGHRQLHLLEDAVTKPELRPCPTLNSKLGPEQKLISEEDLNSAVDHHHHHH
modifications: Synthetically produced sequence
B2: C-Ag15: 15-kD COOH-terminal fragment of agrin created by deleting 37 amino acids from the NH2 terminus of C-Ag20, SEQ. ID NO. 3 (protein)
chain: MDPWIGKAAERADYMALAIVDGHLQLSYDLASQPVVLRSTVKVNTNRWLRVRAHREHREGSLQVGNEAPVTSSSPLGATQLDTDGALWLGGLQKLPVGQPLPKAYGTGFVGCLRNVVGHRQLHLLEDAVTKPELRPCPTLNSKLGPEQKLISEEDLNSAVDHHHHHH
modifications: Synthetically produced sequence

Test system: cultured cortical neurons
Assay: Firing properties of cultured cortical neurons in normal external solution
Type: cell-based, mouse
Details: absence of TTX and neurotransmitter receptor antagonists

Molecule | frequency of spontaneous action potentials
B1 | significant and reversible increase
B2 | inhibited spontaneous activity
